Data from paper PMC7954794, “Protein context shapes the specificity of SH3 domain-mediated interactions in vivo” (Nature Communications, 2021).

Test system: growth of yeast strains under 51 stress conditions
Assay: Growth assays in 51 stress conditions (Fig. 1E-F, S2D, S5B)
Assay type: cell-based, Saccharomyces cerevisiae
Parameters: key to Growth (Fig. S2D) / growth of ABP1 SH3-swapped strains in stress condition: log2 colony size, average of median per strain (growth score)
Conditions: ABP1 SH3-swapped strains
How it was run: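 Yeast WT, SH3-deleted, KO, SH3-swapped and SH3-shuffled strains pinned in 1536 format, 12 replicates each; pregrown on YPD 2 days at 30 °C, then replicated onto 51 media at 37 °C and imaged every 2 h. Growth score = mean of per-plate median log2 colony size at 74 h.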

B1: HSE1 (protein, UniProt P38753 2-452, looked up)
Class E vacuolar …: SSSAIKIRNALLKATDPKLRSDNWQYILDVCDLVKEDPEDNGQEVMSLIEKRLEQQDANVILRTLSLTVSLAENCGSRLRQEISSKNFTSLLYALIESHSVHITLKKAVTDVVKQLSDSFKDDPSLRAMGDLYDKIKRKAPYLVQPNVPEKHNMSTQADNSDDEELQKALKMSLFEYEKQKKLQEQEKESAEVLPQQQQQHQQQNQAPAHKIPAQTVVRRVRALYDLTTNEPDELSFRKGDVITVLEQVYRDWWKGALRGNMGIFPLNYVTPIVEPSKEEIEKEKNKEAIVFSQKTTIDQLHNSLNAASKTGNSNEVLQDPHIGDMYGSVTPLRPQVTRMLGKYAKEKEDMLSLRQVLANAERSYNQLMDRAANAHISPPVPGPALYAGMTHANNTPVMPPQRQSYQSNEYSPYPSNLPIQHPTNSANNTPQYGYDLGYSVVSQPPPGYEQ
Growth (Fig. S2D) (Bathophenanthroline.0.1uM): 10.8649 | Growth (Fig. S2D) (Bathophenanthroline.10uM): 10.6324 | Growth (Fig. S2D) (Bathophenanthroline.1uM): 10.7994 | Growth (Fig. S2D) (CaCl2.100mM): 10.826 | Growth (Fig. S2D) (CaCl2.250mM): 10.8072 | Growth (Fig. S2D) (CaCl2.500mM): 10.2874 | Growth (Fig. S2D) (Caffein.10mM): 10.0363 | Growth (Fig. S2D) (Caffein.2mM): 11.0184 | Growth (Fig. S2D) (CdCl2.100uM): 9.591 | Growth (Fig. S2D) (CdCl2.10uM): 10.9135 | Growth (Fig. S2D) (CdCl2.50uM): 9.882 | Growth (Fig. S2D) (CuSO4.1mM): 10.4158 | Growth (Fig. S2D) (CuSO4.5mM): 7.9665 | Growth (Fig. S2D) (Cycloheximide.0.05.uM): 11.0571 | Growth (Fig. S2D) (Cycloheximide.0.2.uM): 10.6529 | Growth (Fig. S2D) (Cycloheximide.0.5.uM): 10.099 | Growth (Fig. S2D) (DMSO.2.): 11.0462 | Growth (Fig. S2D) (DMSO.6.): 9.883 | Growth (Fig. S2D) (DMSO.8.): 9.238 | Growth (Fig. S2D) (Ethanol.2.): 10.7698 | Growth (Fig. S2D) (Ethanol.6.): 10.2684 | Growth (Fig. S2D) (Ethanol.8.): 10.106 | Growth (Fig. S2D) (Galactose.2.): 10.7486 | Growth (Fig. S2D) (Glycerol.2.): 9.782 | Growth (Fig. S2D) (Hydroxyurea.25mM): 10.7604 | Growth (Fig. S2D) (Hygromycin.190uM): 10.981 | Growth (Fig. S2D) (Hygromycin.19uM): 10.9309 | Growth (Fig. S2D) (Hygromycin.95uM): 11.0429 | Growth (Fig. S2D) (MMS.0.004.): 11.0045 | Growth (Fig. S2D) (MMS.0.02.): 10.6778 | Growth (Fig. S2D) (MMS.0.04.): 10.0151 | Growth (Fig. S2D) (Menadione.100uM): 10.5782 | Growth (Fig. S2D) (Menadione.200uM): 10.4179 | Growth (Fig. S2D) (Menadione.50uM): 10.792 | Growth (Fig. S2D) (NaCl.0.25M): 10.7546 | Growth (Fig. S2D) (NaCl.1M): 9.884 | Growth (Fig. S2D) (Nitroquinoline.10uM): 10.6974 | Growth (Fig. S2D) (Nitroquinoline.50uM): 10.5671 | Growth (Fig. S2D) (Nystatin.0.01uM): 11.0224 | Growth (Fig. S2D) (Nystatin.0.1uM): 11.0326 | Growth (Fig. S2D) (Raffinose.2.): 11.0272 | Growth (Fig. S2D) (Rapamycin.10nM): 9.925 | Growth (Fig. S2D) (Rapamycin.50nM): 9.396 | Growth (Fig. S2D) (SC.pH3): 10.4058 | Growth (Fig. S2D) (SC.pH6): 10.9649 | Growth (Fig. S2D) (SDS.0.01.): 10.9823 | Growth (Fig. S2D) (SDS.0.02.): 10.9972 | Growth (Fig. S2D) (SDS.0.05.): 10.8418 | Growth (Fig. S2D) (Sorbitol.10mM): 11.0121 | Growth (Fig. S2D) (Sorbitol.1mM): 11.0602 | Growth (Fig. S2D) (Sorbitol.5mM): 10.8937

B2: LSB1 (protein, UniProt P53281 2-241, looked up)
LAS seventeen-binding protein …: SASLVNRSLKNIRNELEFLKESNVISGDIFELINSKLPEKWDGNQRSPQNADTEEYVEALYDFEAQQDGDLSLKTGDKIQVLEKISPDWYRGKSNNKIGIFPANYVKPAFTRSASPKSAEAASSSTVSRPSVPPPSYEPAASQYPSQQVSAPYAPPAGYMQAPPPQQQQAPLPYPPPFTNYYQQPQQQYAPPSQQAPVEAQPQQSSGASSAFKSFGSKLGNAAIFGAGSAIGSDIVNSIF
Growth (Fig. S2D) (Bathophenanthroline.0.1uM): 10.7989 | Growth (Fig. S2D) (Bathophenanthroline.10uM): 10.6305 | Growth (Fig. S2D) (Bathophenanthroline.1uM): 10.7471 | Growth (Fig. S2D) (CaCl2.100mM): 10.8093 | Growth (Fig. S2D) (CaCl2.250mM): 10.7989 | Growth (Fig. S2D) (CaCl2.500mM): 10.2904 | Growth (Fig. S2D) (Caffein.10mM): 10.1077 | Growth (Fig. S2D) (Caffein.2mM): 10.9656 | Growth (Fig. S2D) (CdCl2.100uM): 9.41 | Growth (Fig. S2D) (CdCl2.10uM): 10.8732 | Growth (Fig. S2D) (CdCl2.50uM): 9.85 | Growth (Fig. S2D) (CuSO4.1mM): 10.4529 | Growth (Fig. S2D) (CuSO4.5mM): 7.9447 | Growth (Fig. S2D) (Cycloheximide.0.05.uM): 11.0938 | Growth (Fig. S2D) (Cycloheximide.0.2.uM): 10.6171 | Growth (Fig. S2D) (Cycloheximide.0.5.uM): 10.0964 | Growth (Fig. S2D) (DMSO.2.): 11.0559 | Growth (Fig. S2D) (DMSO.6.): 9.9059 | Growth (Fig. S2D) (DMSO.8.): 9.2023 | Growth (Fig. S2D) (Ethanol.2.): 10.7659 | Growth (Fig. S2D) (Ethanol.6.): 10.2982 | Growth (Fig. S2D) (Ethanol.8.): 10.0154 | Growth (Fig. S2D) (Galactose.2.): 10.7736 | Growth (Fig. S2D) (Glycerol.2.): 9.808 | Growth (Fig. S2D) (Hydroxyurea.25mM): 10.7374 | Growth (Fig. S2D) (Hygromycin.190uM): 11.0084 | Growth (Fig. S2D) (Hygromycin.19uM): 10.9924 | Growth (Fig. S2D) (Hygromycin.95uM): 10.9928 | Growth (Fig. S2D) (MMS.0.004.): 10.965 | Growth (Fig. S2D) (MMS.0.02.): 10.7457 | Growth (Fig. S2D) (MMS.0.04.): 10.0868 | Growth (Fig. S2D) (Menadione.100uM): 10.5379 | Growth (Fig. S2D) (Menadione.200uM): 10.4102 | Growth (Fig. S2D) (Menadione.50uM): 10.7973 | Growth (Fig. S2D) (NaCl.0.25M): 10.8176 | Growth (Fig. S2D) (NaCl.1M): 9.837 | Growth (Fig. S2D) (Nitroquinoline.10uM): 10.6531 | Growth (Fig. S2D) (Nitroquinoline.50uM): 10.6066 | Growth (Fig. S2D) (Nystatin.0.01uM): 10.9737 | Growth (Fig. S2D) (Nystatin.0.1uM): 10.9631 | Growth (Fig. S2D) (Raffinose.2.): 11.0015 | Growth (Fig. S2D) (Rapamycin.10nM): 9.7845 | Growth (Fig. S2D) (Rapamycin.50nM): 9.381 | Growth (Fig. S2D) (SC.pH3): 10.3983 | Growth (Fig. S2D) (SC.pH6): 10.9866 | Growth (Fig. S2D) (SDS.0.01.): 10.9788 | Growth (Fig. S2D) (SDS.0.02.): 10.9881 | Growth (Fig. S2D) (SDS.0.05.): 10.872 | Growth (Fig. S2D) (Sorbitol.10mM): 11.0061 | Growth (Fig. S2D) (Sorbitol.1mM): 11.049 | Growth (Fig. S2D) (Sorbitol.5mM): 10.9179
